Measured values taken from publication PMC2776655 (Circulation research, 2009).
Positions count from the first letter of the chain named. Names may count otherwise. Each block holds one binder with its values, some of them ahead of it.

What was measured:
[1] = target: the molecule itself; assay: SDS-PAGE in non-reducing conditions
[2] = target: T1, VEGFR-3 (protein used in isothermal titration calorimetry) (UniProt P35916 25-775); assay: ITC
T1 sequence (looked up): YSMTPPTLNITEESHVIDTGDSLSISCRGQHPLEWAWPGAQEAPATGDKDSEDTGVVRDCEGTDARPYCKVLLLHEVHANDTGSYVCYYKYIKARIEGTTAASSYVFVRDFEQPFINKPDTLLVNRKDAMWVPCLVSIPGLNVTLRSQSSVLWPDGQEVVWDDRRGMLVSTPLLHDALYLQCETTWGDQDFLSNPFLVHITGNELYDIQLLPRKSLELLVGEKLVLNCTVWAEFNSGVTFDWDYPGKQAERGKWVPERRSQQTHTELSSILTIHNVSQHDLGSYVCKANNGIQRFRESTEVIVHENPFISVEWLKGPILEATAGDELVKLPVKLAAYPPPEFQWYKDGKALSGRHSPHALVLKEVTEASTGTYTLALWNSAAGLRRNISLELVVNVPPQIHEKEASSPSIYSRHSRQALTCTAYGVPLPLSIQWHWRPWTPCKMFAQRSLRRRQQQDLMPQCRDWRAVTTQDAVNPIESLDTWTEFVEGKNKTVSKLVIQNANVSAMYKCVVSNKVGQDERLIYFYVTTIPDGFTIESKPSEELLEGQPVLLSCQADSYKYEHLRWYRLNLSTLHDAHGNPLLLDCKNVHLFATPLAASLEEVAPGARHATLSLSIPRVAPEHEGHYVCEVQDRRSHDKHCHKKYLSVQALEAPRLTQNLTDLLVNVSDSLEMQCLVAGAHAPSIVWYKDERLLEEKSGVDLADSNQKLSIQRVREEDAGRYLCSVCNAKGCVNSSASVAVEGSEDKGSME

VEGFR-2-Ig = VEGFR-2-Ig (UniProt P35968 20-764); assay: ELISA
VEGFR-3-Ig = target: T2, VEGFR-3-Ig (UniProt P35916 25-775); assay: ELISA
T2 sequence (looked up): T1 sequence (looked up)

[3] = target: the molecule itself; assay: SDS-PAGE after treatment with DTT

VEGFR-2-Ig, sequence (P35968 20-764): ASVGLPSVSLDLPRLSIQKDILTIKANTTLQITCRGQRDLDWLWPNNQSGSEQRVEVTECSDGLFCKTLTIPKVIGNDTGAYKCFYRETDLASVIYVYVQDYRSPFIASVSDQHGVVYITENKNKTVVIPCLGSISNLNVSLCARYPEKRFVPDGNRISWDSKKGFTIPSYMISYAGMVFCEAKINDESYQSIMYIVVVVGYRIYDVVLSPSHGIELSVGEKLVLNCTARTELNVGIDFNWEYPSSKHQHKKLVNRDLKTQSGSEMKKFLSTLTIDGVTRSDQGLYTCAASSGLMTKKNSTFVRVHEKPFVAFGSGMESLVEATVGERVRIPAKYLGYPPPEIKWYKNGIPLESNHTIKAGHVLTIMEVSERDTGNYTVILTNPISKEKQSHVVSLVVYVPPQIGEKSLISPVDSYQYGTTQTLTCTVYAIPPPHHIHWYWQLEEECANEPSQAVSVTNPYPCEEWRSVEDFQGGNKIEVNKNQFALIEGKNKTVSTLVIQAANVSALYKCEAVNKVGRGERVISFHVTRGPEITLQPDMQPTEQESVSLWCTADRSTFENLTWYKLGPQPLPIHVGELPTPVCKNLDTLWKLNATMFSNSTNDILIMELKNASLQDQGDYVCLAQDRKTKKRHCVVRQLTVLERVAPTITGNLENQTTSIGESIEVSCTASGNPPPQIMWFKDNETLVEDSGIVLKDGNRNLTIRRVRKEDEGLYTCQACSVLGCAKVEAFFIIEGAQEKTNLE

B1: hVEGF-Csf C137A, from transfected 293T cell medium (ligand, human, UniProt P49767 112-227, looked up)
chain: AHYNTEILKSIDNEWRKTQCMPREVAIDVGKEFGVATNTFFKPPCVSVYRCGGCCNSEGLQCMNTSTSYLSKTLFEITVPLSQGPKPVTISFANHTSCRCMSKLDVYRQVHSIIRR
stoichiometry N [1]: 2

Kd [2]: 310 ± 50 nM
EC50 (VEGFR-2-Ig): 2.6 ± 0.3 nM
EC50 (VEGFR-3-Ig): 2.2 ± 0.6 nM
B2: purified human VEGF-Csf (ligand, UniProt P49767 112-227, looked up)
chain: B1 chain with A26C

Kd [2]: 280 ± 30 nM
EC50 (VEGFR-2-Ig): 2.7 ± 0.6 nM
EC50 (VEGFR-3-Ig): 1.3 ± 0.3 nM
B3: purified hVEGF-Csf C137A (ligand, human, UniProt P49767 112-227, looked up)
chain: B1 chain
stoichiometry N [3]: 2
